Laboratory results from paper PMC5069464.

Legend:
Conditions in all cases: glycan lost; control: wild type
[1] = whole-cell tail currents, Boltzmann fit
[2] = puromycin chase, >250 kDa band at 48 hr
[3] = high-throughput patch (IonWorks Barracuda), peak current
[4] = cell-attached single-channel recording, tsA201
[5] = whole-cell pre-pulse protocol, Boltzmann fit

hCaV3.3 α1 subunit: R1346H
other: voltage dependence of activation, other: V1/2-negative [1]: no change, −37.6 ± 0.99 vs −40.0 ± 0.98
degradation_or_half_life, other: fraction of pre-puromycin level [2]: no change, 0.50 ± 0.12 vs 0.36 ± 0.08
other: channel current, other: median peak current [3]: decreases, 0.56 vs 1.30
other: single-channel conductance, other: conductance [4]: no change, 13.7 ± 0.6 vs 14.0 ± 0.8
other: voltage dependence of inactivation, other: V1/2 [5]: no change, −69.4 ± 1.4 vs −67.1 ± 0.89
